Columns and labels:
[1] = molecular target: mouse Toll-like receptor 5 (mouse) (UniProt Q9JLF7); test: cell-based or functional assay
[2] = molecular target: human Toll-like receptor 5 (human) (UniProt O60602); test: cell-based or functional assay
Chain of UniProt O60602 (O60602 21-858): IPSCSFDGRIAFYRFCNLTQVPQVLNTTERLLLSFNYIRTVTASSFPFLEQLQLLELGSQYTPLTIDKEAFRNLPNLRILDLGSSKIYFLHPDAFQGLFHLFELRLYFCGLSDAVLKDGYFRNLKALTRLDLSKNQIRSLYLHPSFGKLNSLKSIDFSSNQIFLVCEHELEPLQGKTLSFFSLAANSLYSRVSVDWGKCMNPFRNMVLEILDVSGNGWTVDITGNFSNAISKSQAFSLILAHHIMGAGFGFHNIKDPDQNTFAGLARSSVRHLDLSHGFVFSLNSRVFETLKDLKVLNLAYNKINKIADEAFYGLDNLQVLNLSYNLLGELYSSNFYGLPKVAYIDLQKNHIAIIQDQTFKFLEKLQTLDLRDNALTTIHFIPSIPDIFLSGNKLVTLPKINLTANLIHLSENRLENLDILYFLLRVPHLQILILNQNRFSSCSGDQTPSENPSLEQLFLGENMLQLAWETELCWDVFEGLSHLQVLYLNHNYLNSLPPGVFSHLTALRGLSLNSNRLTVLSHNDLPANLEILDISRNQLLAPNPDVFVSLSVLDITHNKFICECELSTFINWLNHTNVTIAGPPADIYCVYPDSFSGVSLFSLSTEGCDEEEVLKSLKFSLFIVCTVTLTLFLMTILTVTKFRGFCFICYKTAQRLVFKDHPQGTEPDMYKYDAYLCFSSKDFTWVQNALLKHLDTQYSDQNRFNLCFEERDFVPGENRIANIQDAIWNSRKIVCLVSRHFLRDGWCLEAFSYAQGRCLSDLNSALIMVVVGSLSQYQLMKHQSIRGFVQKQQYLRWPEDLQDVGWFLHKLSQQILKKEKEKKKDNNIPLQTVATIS

Chain of UniProt Q9JLF7 (Q9JLF7 27-859): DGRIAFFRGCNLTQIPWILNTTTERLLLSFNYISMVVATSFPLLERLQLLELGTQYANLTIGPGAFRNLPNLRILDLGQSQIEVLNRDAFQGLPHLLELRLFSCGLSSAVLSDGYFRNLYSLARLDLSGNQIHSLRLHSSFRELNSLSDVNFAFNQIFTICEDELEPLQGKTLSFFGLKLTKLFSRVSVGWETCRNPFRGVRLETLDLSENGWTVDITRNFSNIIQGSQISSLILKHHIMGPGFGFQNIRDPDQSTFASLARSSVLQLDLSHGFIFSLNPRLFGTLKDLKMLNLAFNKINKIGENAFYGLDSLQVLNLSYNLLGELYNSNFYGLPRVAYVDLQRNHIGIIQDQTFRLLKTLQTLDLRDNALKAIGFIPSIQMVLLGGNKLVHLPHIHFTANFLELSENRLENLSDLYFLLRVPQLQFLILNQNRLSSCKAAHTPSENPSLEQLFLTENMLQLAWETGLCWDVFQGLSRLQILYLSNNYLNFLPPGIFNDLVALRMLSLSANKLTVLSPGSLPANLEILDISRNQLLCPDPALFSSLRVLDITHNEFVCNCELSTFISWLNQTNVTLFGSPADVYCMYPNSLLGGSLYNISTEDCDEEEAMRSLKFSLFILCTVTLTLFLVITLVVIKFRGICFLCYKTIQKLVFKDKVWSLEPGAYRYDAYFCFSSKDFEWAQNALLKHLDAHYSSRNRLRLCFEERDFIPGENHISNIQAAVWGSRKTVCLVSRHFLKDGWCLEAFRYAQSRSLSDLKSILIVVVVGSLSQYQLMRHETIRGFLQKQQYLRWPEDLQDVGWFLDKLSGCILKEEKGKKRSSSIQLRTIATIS

Substance	TLR5-mediated NF-κB activation (luciferase, HEK293 cells with mouse TLR5) (fold lower than FliC WT) [1]	TLR5-mediated NF-κB activation (luciferase, HEK293 cells with human TLR5) (fold lower than FliC WT) [2]
recombinant mutant flagellin FliC R90A (from UniProt P72151 2-488) (ligand)	> 100	> 100
recombinant mutant flagellin FliC L88A (from UniProt P72151 2-488) (ligand)	> 100	> 100

— patent publication US20100015170A1
